Experimental data reported in the RNAGym collection of RNA variant scans (doi:10.1073/pnas.2313332121).

B1: TPR t1 (parent)
chain: GACCAAUCUGCCCUCAGAGCUCGAGAACAUCUUCGGAUGCAGAGGAGGCAGGCUUCGGUGGCGCGAUAGCGCCAACGUCCUCAACCUCCAAUGCAUCCCACCACAUGAUGAUGCCUGAAGAGCCUUGGUUUUUUG

Variants of: B1
Assay: polymerase ribozyme fitness, log enrichment relative to wild type (log ratio); higher = more active; in vitro selection for triplet polymerase activity
Method in brief: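 Genotype fitness is the logarithm of its enrichment divided by wild-type enrichment, using inverse-variance-weighted averages of replicates. That logarithm is base 2. Enrichment was measured by Illumina sequencing of input and output libraries from one triplicate in vitro selection round, with frozen incubation at −7 °C, on PCR-built, transcribed mutant libraries of each subunit of a heterodimeric triplet polymerase ribozyme, retaining genotypes with ≥10 input reads and ≥1 read per output.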

Variant	polymerase ribozyme fitness (log ratio)
GACCAAUCUGCCCUCAGAGCUCGAGAACAUCUUCGGAUGCAGAGGAGGCAGGCUUCGGUGGCGCGAUAGCGCCAACGUCCUCAACCUCCAAUGCAUCCCACCACAUGAUAAUGCCUGAAGAGCCUUAGUUUUUCG [G110A G127A U134C]	-3.29
GACCAAUCUGCCCUCAGAGCUCGAGAACAUCUUCGGAUGCAGAGGAGGCAGGCUUCGGUGGCGCGAUAGCGCCAACGUCCUCAACCUCCAAUGCAUCCCACCACAUGAUGCUGCCUGAUGAGCCUUGGUUCUUUG [A111C A119U U131C]	0.0159
GACCAAUCUGCCCUCAGAGCUCGAGAACAUCUUCGGAUGCAGAGGAGGCAGGCUUCGGUGGCGCGAUAGCGCCAACGUCCUCAACCUCCAAUGCAUCCCACCACAUGAUGAAACCUGAAGAGCCUUGGUUUUUUG [U112A G113A]	-0.782
GACCAAUCUGCCCUCAGAGCUCGAGAACAUCUUCGGAUGCAGAGGAGGCAGGCUUCGGUGGCGCGAUAGCGCCAACGUCCUCAACCUCCAAUGCAUCCCACCACAUGAUGGUCCCUGAAGAGCCUUGGUUUUUUG [A111G G113C]	-2.06
GACCAAUCUGCCCUCAGAGCUCGAGAACAUCUUCGGAUGCAGAGGAGGCAGGCUUCGGUGGCGCGAUAGCGCCAACGUCCUCAACCUCCAAUGCAUCCCACCACAUGAUGGUGCCUGAAGAUCCUUGGCUUUUUG [A111G G122U U129C]	-5.05
GACCAAUCUGCCCUCAGAGCUCGAGAACAUCUUCGGAUGCAGAGGAGGCAGGCUUCGGUGGCGCGAUAGCGCCAACGUCCUCAACCUCCAAUGCAUCCCACCACAUGAUGGUGCCUGAAAAGCCUUGGUUUUUUG [A111G G120A]	-0.416
GACCAAUCUGCCCUCAGAGCUCGAGAACAUCUUCGGAUGCAGAGGAGGCAGGCUUCGGUGGCGCGAUAGCGCCAACGUCCUCAACCUCCAAUGCAUCCCACCACAUGAUAAUGCCUGAAGAGCCUUGGUUUUUUU [G110A G135U]	-1.92
GACCAAUCUGCCCUCAGAGCUCGAGAACAUCUUCGGAUGCAGAGGAGGCAGGCUUCGGUGGCGCGAUAGCGCCAACGUCCUCAACCUCCAAUGCAUCCCACCACAUGAUUAUGCCUGAAGAGCCAUGGUUUUUUG [G110U U125A]	-0.916
GACCAAUCUGCCCUCAGAGCUCGAGAACAUCUUCGGAUGCAGAGGAGGCAGGCUUCGGUGGCGCGAUAGCGCCAACGUCCUCAACCUCCAAUGCAUCCCACCACAUGAUGGUGCCUCAAGAGCCUUGGUUUUUUG [A111G G117C]	-4.52
GACCAAUCUGCCCUCAGAGCUCGAGAACAUCUUCGGAUGCAGAGGAGGCAGGCUUCGGUGGCGCGAUAGCGCCAACGUCCUCAACCUCCAAUGCAUCCCACCACAUGAUAAUGCCUGAAUAGCCUUGGUUUUUUG [G110A G120U]	-1.91
GACCAAUCUGCCCUCAGAGCUCGAGAACAUCUUCGGAUGCAGAGGAGGCAGGCUUCGGUGGCGCGAUAGCGCCAACGUCCUCAACCUCCAAUGCAUCCCACCACAUGAUGCUGGCUGAAGAGCCUUGGUUUUUUG [A111C C114G]	-3.93
GACCAAUCUGCCCUCAGAGCUCGAGAACAUCUUCGGAUGCAGAGGAGGCAGGCUUCGGUGGCGCGAUAGCGCCAACGUCCUCAACCUCCAAUGCAUCCCACCACAUGAUGCUGCCUGAAGAGCCUUAGUUUUUUG [A111C G127A]	-2.45
GACCAAUCUGCCCUCAGAGCUCGAGAACAUCUUCGGAUGCAGAGGAGGCAGGCUUCGGUGGCGCGAUAGCGCCAACGUCCUCAACCUCCAAUGCAUCCCACCACAUGAUGUGGCCUGAAGAACCUUGGUUUUUUG [A111U U112G G122A]	-2.25
GACCAAUCUGCCCUCAGAGCUCGAGAACAUCUUCGGAUGCAGAGGAGGCAGGCUUCGGUGGCGCGAUAGCGCCAACGUCCUCAACCUCCAAUGCAUCCCACCACAUGAUGAAGCCUGUAGAGCCUUGGUUUUUUA [U112A A118U G135A]	1.33
GACCAAUCUGCCCUCAGAGCUCGAGAACAUCUUCGGAUGCAGAGGAGGCAGGCUUCGGUGGCGCGAUAGCGCCAACGUCCUCAACCUCCAAUGCAUCCCACCACAUGAUGAAGCCUGAACAGCCUUGGUUUUUUG [U112A G120C]	-0.182
GACCAAUCUGCCCUCAGAGCUCGAGAACAUCUUCGGAUGCAGAGGAGGCAGGCUUCGGUGGCGCGAUAGCGCCAACGUCCUCAACCUCCAAUGCAUCCCACCACAUGAUUAUGCCUGAAGAGCCUUGGUUUUUUU [G110U G135U]	-3.12
GACCAAUCUGCCCUCAGAGCUCGAGAACAUCUUCGGAUGCAGAGGAGGCAGGCUUCGGUGGCGCGAUAGCGCCAACGUCCUCAACCUCCAAUGCAUCCCACCACAUGAUGAAGCCUGAGGAGCCUUGGUUUUUUG [U112A A119G]	1.9
GACCAAUCUGCCCUCAGAGCUCGAGAACAUCUUCGGAUGCAGAGGAGGCAGGCUUCGGUGGCGCGAUAGCGCCAACGUCCUCAACCUCCAAUGCAUCCCACCACAUGAUUAUGCCUGAAUAGCCUUGGUUUUUUG [G110U G120U]	-2.75
GACCAAUCUGCCCUCAGAGCUCGAGAACAUCUUCGGAUGCAGAGGAGGCAGGCUUCGGUGGCGCGAUAGCGCCAACGUCCUCAACCUCCAAUGCAUCCCACCACAUGAUAAUGCCUGAAGAGUCUUGGUUUUUUG [G110A C123U]	-0.322
GACCAAUCUGCCCUCAGAGCUCGAGAACAUCUUCGGAUGCAGAGGAGGCAGGCUUCGGUGGCGCGAUAGCGCCAACGUCCUCAACCUCCAAUGCAUCCCACCACAUGAUGCUGCCUGAUGAGCCUUGGUUUUUUG [A111C A119U]	-2.28
GACCAAUCUGCCCUCAGAGCUCGAGAACAUCUUCGGAUGCAGAGGAGGCAGGCUUCGGUGGCGCGAUAGCGCCAACGUCCUCAACCUCCAAUGCAUCCCACCACAUGAUUACGCCUGAAGAGCCUUGGUUUUUUG [G110U U112C]	-2.02

Variant	polymerase ribozyme fitness (log ratio)
GACCAAUCUGCCCUCAGAGCUCGAGAACAUCUUCGGAUGCAGAGGAGGCAGGCUUCGGUGGCGCGAUAGCGCCAACGUCCUCAACCUCCAAUGCAUCCCACCACAUGAUGUUGCCUGAAGAGCCUUGGUUUUUUG [A111U]	-2.62
GACCAAUCUGCCCUCAGAGCUCGAGAACAUCUUCGGAUGCAGAGGAGGCAGGCUUCGGUGGCGCGAUAGCGCCAACGUCCUCAACCUCCAAUGCAUCCCACCACAUGAUGCUGCCUGAAGAGCCUUGGUUUUUUG [A111C]	0.388
GACCAAUCUGCCCUCAGAGCUCGAGAACAUCUUCGGAUGCAGAGGAGGCAGGCUUCGGUGGCGCGAUAGCGCCAACGUCCUCAACCUCCAAUGCAUCCCACCACAUGAUGGUGCCUGAAGAGCCUUGGUUUUUUG [A111G]	0.509
GACCAAUCUGCCCUCAGAGCUCGAGAACAUCUUCGGAUGCAGAGGAGGCAGGCUUCGGUGGCGCGAUAGCGCCAACGUCCUCAACCUCCAAUGCAUCCCACCACAUGAUCAUGCCUGAAGAGCAUUGGUUUUUUG [G110C C124A]	-3.32
GACCAAUCUGCCCUCAGAGCUCGAGAACAUCUUCGGAUGCAGAGGAGGCAGGCUUCGGUGGCGCGAUAGCGCCAACGUCCUCAACCUCCAAUGCAUCCCACCACAUGAUGACGCCUGUAGAGCCUUGGUUUUUUG [U112C A118U]	1.35
GACCAAUCUGCCCUCAGAGCUCGAGAACAUCUUCGGAUGCAGAGGAGGCAGGCUUCGGUGGCGCGAUAGCGCCAACGUCCUCAACCUCCAAUGCAUCCCACCACAUGAUGCUGCCUGAAGACCCUUGGUUUUUUG [A111C G122C]	-1.39
GACCAAUCUGCCCUCAGAGCUCGAGAACAUCUUCGGAUGCAGAGGAGGCAGGCUUCGGUGGCGCGAUAGCGCCAACGUCCUCAACCUCCAAUGCAUCCCACCACAUGAUAAUUCCUGAAGAGCCUUGGUUUUUUG [G110A G113U]	-5.23
GACCAAUCUGCCCUCAGAGCUCGAGAACAUCUUCGGAUGCAGAGGAGGCAGGCUUCGGUGGCGCGAUAGCGCCAACGUCCUCAACCUCCAAUGCAUCCCACCACAUGAUGCUGCCUGAAGAGCCUUGGUUUUCUG [A111C U133C]	1.26
GACCAAUCUGCCCUCAGAGCUCGAGAACAUCUUCGGAUGCAGAGGAGGCAGGCUUCGGUGGCGCGAUAGCGCCAACGUCCUCAACCUCCAAUGCAUCCCACCACAUGAUGCUGCCUCAAGAGCCUUGGUUUUUUG [A111C G117C]	-4.16
GACCAAUCUGCCCUCAGAGCUCGAGAACAUCUUCGGAUGCAGAGGAGGCAGGCUUCGGUGGCGCGAUAGCGCCAACGUCCUCAACCUCCAAUGCAUCCCACCACAUGAUAAUGCCUGACGAGCCUUGGUUUUUUG [G110A A119C]	-2.25
GACCAAUCUGCCCUCAGAGCUCGAGAACAUCUUCGGAUGCAGAGGAGGCAGGCUUCGGUGGCGCGAUAGCGCCAACGUCCUCAACCUCCAAUGCAUCCCACCACAUGAUGACGCCUGAAGGGCCUUGGUUUUUUG [U112C A121G]	2.63
GACCAAUCUGCCCUCAGAGCUCGAGAACAUCUUCGGAUGCAGAGGAGGCAGGCUUCGGUGGCGCGAUAGCGCCAACGUCCUCAACCUCCAAUGCAUCCCACCACAUGAUGACGCCUGAAGAGCGUUGGUUUUUUG [U112C C124G]	1.79
GACCAAUCUGCCCUCAGAGCUCGAGAACAUCUUCGGAUGCAGAGGAGGCAGGCUUCGGUGGCGCGAUAGCGCCAACGUCCUCAACCUCCAAUGCAUCCCACCACAUGAUCAUGCCUGAAGAUCCUUGGUUUUUUG [G110C G122U]	-4.38
GACCAAUCUGCCCUCAGAGCUCGAGAACAUCUUCGGAUGCAGAGGAGGCAGGCUUCGGUGGCGCGAUAGCGCCAACGUCCUCAACCUCCAAUGCAUCCCACCACAUGAUGCUUCCUGAAGAGCCUUGGUUUUUUG [A111C G113U]	-3.68
GACCAAUCUGCCCUCAGAGCUCGAGAACAUCUUCGGAUGCAGAGGAGGCAGGCUUCGGUGGCGCGAUAGCGCCAACGUCCUCAACCUCCAAUGCAUCCCACCACAUGAUGAAGCCUGAAGAGCCUAGGUUUUUUG [U112A U126A]	1.04
GACCAAUCUGCCCUCAGAGCUCGAGAACAUCUUCGGAUGCAGAGGAGGCAGGCUUCGGUGGCGCGAUAGCGCCAACGUCCUCAACCUCCAAUGCAUCCCACCACAUGAUAAUGCCUGAAGAGCCUUGGUUUAUUG [G110A U132A]	-1.37
GACCAAUCUGCCCUCAGAGCUCGAGAACAUCUUCGGAUGCAGAGGAGGCAGGCUUCGGUGGCGCGAUAGCGCCAACGUCCUCAACCUCCAAUGCAUCCCACCACAUGAUAAUGCCUGAAGUGCCUUGGUUUUUUG [G110A A121U]	0.16
GACCAAUCUGCCCUCAGAGCUCGAGAACAUCUUCGGAUGCAGAGGAGGCAGGCUUCGGUGGCGCGAUAGCGCCAACGUCCUCAACCUCCAAUGCAUCCCACCACAUGAUGAAGACUGAAGAGCCUUGGUUUUAUG [U112A C114A U133A]	-1.04
GACCAAUCUGCCCUCAGAGCUCGAGAACAUCUUCGGAUGCAGAGGAGGCAGGCUUCGGUGGCGCGAUAGCGCCAACGUCCUCAACCUCCAAUGCAUCCCACCACAUGAUGGUGCCUGAAAAACCUUGGUUUUUUG [A111G G120A G122A]	-2.07
GACCAAUCUGCCCUCAGAGCUCGAGAACAUCUUCGGAUGCAGAGGAGGCAGGCUUCGGUGGCGCGAUAGCGCCAACGUCCUCAACCUCCAAUGCAUCCCACCACAUGAUAAUGCCUGAAGAUCCUUGGUUUUUUG [G110A G122U]	-1.41
GACCAAUCUGCCCUCAGAGCUCGAGAACAUCUUCGGAUGCAGAGGAGGCAGGCUUCGGUGGCGCGAUAGCGCCAACGUCCUCAACCUCCAAUGCAUCCCACCACAUGAUAAUGCAUGAAGAGCCUUGGUUUUUUG [G110A C115A]	-1.87
